Reference: patent US20260242478A1 (published 2026)
Where no end group is shown, it is not given here.

B1: Phage-2790 (peptide)
peptide: VMKWCTPSWMCAEA
modifications: cysteine pairing not given here; also: fused to pIII, displayed on bacteriophage
B2: Phage-2803 (peptide)
peptide: VKHVCMPEWMCYWS
modifications: cysteine pairing not given here; also: fused to pIII, displayed on bacteriophage
B3: Phage-2799 (peptide)
peptide: ESKWCVPTWMCAEN
modifications: cysteine pairing not given here; also: fused to pIII, displayed on bacteriophage
B4: Phage-2787 (peptide)
peptide: LWKSCTPEWMCAEW
modifications: cysteine pairing not given here; also: fused to pIII, displayed on bacteriophage

How the values were obtained:
PSMA Fab (006 PSMA Fab) [1] = target: T1, PSMA Fab (006 PSMA Fab) (biotinylated for capture on neutravidin plates (site not stated)); test: clonal phage ELISA on captured PSMA Fab pre-incubated with PSMA antigen as competitor, anti-M13-HRP detection;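 note: wells blocked with buffer plus PSMA antigen before phage addition, with blocking buffer alone as the no-competitor control, bound phage detected after washing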
T1 construct: also called Anti-PSMA Fab

PSMA Fab (006 PSMA Fab) [2] = target: T1, PSMA Fab (006 PSMA Fab); test: clonal phage ELISA on biotinylated PSMA Fab captured on neutravidin plates, anti-M13-HRP detection;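 note: crude clonal phage supernatants added to wells preincubated with PSMA antigen or with blocking buffer only (no wash between), briefly incubated, then washed before detecting bound phage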
Protocol: (§1) Clonal phage were harvested as crude supernatants and screened via standard ELISAs. […] Prior to the addition of clonal phage. wells were incubated with blocking buffer and PSMA antigen or blocking buffer alone. Without washing or aspirating, clonal phage supernatants were then added to the wells and incubated for a short time. Wells were then washed followed by detection of bound phage using a horse radish conjugated anti-M13 antibody.

PSMA Fab [3] = target: T2, PSMA Fab (biotinylated (site not stated)); test: clonal phage ELISA on captured biotinylated PSMA Fab; competitor: PSMA antigen at saturating concentration
T2 construct: also called Anti-PSMA Fab; 006 PSMA Fab

PSMA Fab [4] = target: T2, PSMA Fab; test: clonal phage ELISA on biotinylated PSMA Fab captured on neutravidin plates, anti-M13 HRP detection;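 note: crude clonal phage supernatants tested, before phage were added, wells were pretreated with PSMA antigen in blocking buffer or with blocking buffer only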
Protocol: as §1

PSMA Fab [5] = target: T3, PSMA Fab; test: clonal phage ELISA on captured PSMA Fab pre-incubated with PSMA antigen as competitor, anti-M13 HRP detection;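 note: crude clonal phage supernatants tested by ELISA, wells first treated with blocking buffer plus PSMA antigen, bound phage read out via HRP-linked anti-M13 antibody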
T3 construct: Biotinylated PSMA Fab captured on neutravidin coated plates in the phage ELISA; also called Anti-PSMA Fab; 006 PSMA Fab
Protocol: as §1

PSMA Fab [6] = target: T3, PSMA Fab; test: clonal phage ELISA on biotinylated PSMA Fab captured on neutravidin plates, anti-M13 HRP detection;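 note: crude clonal phage supernatants tested, before phage were added, wells were pretreated with PSMA antigen in blocking buffer or with blocking buffer only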
Protocol: as §1

Row | Binder | Phage binding ELISA signal, Anti-PSMA Fab in presence of PSMA (PSMA Fab (006 PSMA Fab) [1]) | Phage binding ELISA signal, Anti-PSMA Fab (PSMA Fab (006 PSMA Fab) [2]) | phage binding ELISA signal (Anti-PSMA Fab, wells pre-incubated with PSMA antigen) (PSMA Fab [3]) | Phage binding ELISA signal, Anti-PSMA Fab (PSMA Fab [4]) | other results
1 | IDKWCVPAWMCSPA [Phage-2815] | 0.06 | 0.538 |  |  | 
2 | FEKWCTPQWMCNSM [Phage-2795] |  |  | 0.0699 | 0.59 | 
3 | B1 |  |  | 0.0742 | 0.599 | 
4 | DYKWCTPPWMCDSR [Phage-2800] |  |  | 0.0697 | 0.58 | 
5 | EGKWCTPTWMCQGF [Phage-2804] | 0.0945 | 0.57 |  |  | 
6 | TQHWCTPIWMCEGL [Phage-2792] |  |  | 0.0819 | 0.597 | 
7 | VTKLCIPEWMCVIQ [Phage-2809] | 0.0595 | 0.562 |  |  | 
8 | GATWCTPTWMCTGF [Phage-2806] | 0.117 | 0.566 |  |  | 
9 | GWNWCVPQWMCTTS [Phage-2781] |  |  |  |  | phage binding ELISA signal (Anti-PSMA Fab, PSMA antigen present) (PSMA Fab [5]): 0.121; Phage binding ELISA signal, Anti-PSMA Fab (PSMA Fab [6]): 0.623
10 | MDIWCKPRWMCEEY [Phage-2810] | 0.0676 | 0.562 |  |  | 
11 | ERIWCTPKWMCETF [Phage-2797] |  |  | 0.0657 | 0.589 | 
12 | HFKWCIPPWMCLEI [Phage-2798] |  |  | 0.298 | 0.588 | 
13 | DVKWCTPPWMCLSD [Phage-2785] |  |  |  |  | phage binding ELISA signal (Anti-PSMA Fab, PSMA antigen present) (PSMA Fab [5]): 0.1; Phage binding ELISA signal, Anti-PSMA Fab (PSMA Fab [6]): 0.613
14 | VGPWCIPDWMCDVV [Phage-2812] | 0.0755 | 0.554 |  |  | 
15 | GDKWCKPSWMCDFF [Phage-2816] | 0.072 | 0.526 |  |  | 
16 | MMHWCTPPWMCEFS [Phage-2805] | 0.0626 | 0.568 |  |  | 
17 | VGKWCTPEWMCSGF [Phage-2789] |  |  | 0.0562 | 0.6 | 
18 | TEKWCIPQWMCVRT [Phage-2794] |  |  | 0.0656 | 0.592 | 
19 | SDNWCKPEWMCVGH [Phage-2801] |  |  | 0.0873 | 0.578 | 

Row | Binder | Phage binding ELISA signal, Anti-PSMA Fab in presence of PSMA (PSMA Fab (006 PSMA Fab) [1]) | Phage binding ELISA signal, Anti-PSMA Fab (PSMA Fab (006 PSMA Fab) [2]) | phage binding ELISA signal (Anti-PSMA Fab, wells pre-incubated with PSMA antigen) (PSMA Fab [3]) | Phage binding ELISA signal, Anti-PSMA Fab (PSMA Fab [4]) | other results
20 | QDKMCRPDWMCMNQ [Phage-2782] |  |  |  |  | phage binding ELISA signal (Anti-PSMA Fab, PSMA antigen present) (PSMA Fab [5]): 0.0706; Phage binding ELISA signal, Anti-PSMA Fab (PSMA Fab [6]): 0.621
21 | MEKWCTPRWMCVGM [Phage-2808] | 0.0734 | 0.565 |  |  | 
22 | SVKWCTPSWMCTEW [Phage-2788] |  |  | 0.104 | 0.601 | 
23 | DMKLCRPAWMCMHN [Phage-2784] |  |  |  |  | phage binding ELISA signal (Anti-PSMA Fab, PSMA antigen present) (PSMA Fab [5]): 0.0536; Phage binding ELISA signal, Anti-PSMA Fab (PSMA Fab [6]): 0.621
24 | WEKWCTPSWMCSGI [Phage-2791] |  |  | 0.0859 | 0.598 | 
25 | VTNWCTPPWMCEML [Phage-2793] |  |  | 0.213 | 0.596 | 
26 | VPKWCTPSWMCEFT [Phage-2811] | 0.0648 | 0.56 |  |  | 
27 | FSKLCTPPWMCSVS [Phage-2813] | 0.276 | 0.543 |  |  | 
28 | B2 | 0.0724 | 0.57 |  |  | 
29 | VLNWCTPPWMCSGI [Phage-2780] |  |  |  |  | phage binding ELISA signal (Anti-PSMA Fab, PSMA antigen present) (PSMA Fab [5]): 0.0732; Phage binding ELISA signal, Anti-PSMA Fab (PSMA Fab [6]): 0.624
30 | B3 |  |  | 0.0578 | 0.583 | 
31 | EENWCIPVWMCERL [Phage-2786] |  |  |  |  | phage binding ELISA signal (Anti-PSMA Fab, PSMA antigen present) (PSMA Fab [5]): 0.0721; Phage binding ELISA signal, Anti-PSMA Fab (PSMA Fab [6]): 0.607
32 | WENWCIPQWMCGTA [Phage-2807] | 0.141 | 0.565 |  |  | 
33 | EAKWCTPPWMCSLV [Phage-2817] | 0.0546 | 0.525 |  |  | 
34 | TPKWCTPAWMCVVS [Phage-2802] |  |  | 0.077 | 0.575 | 
35 | PMKWCTPPWMCSYS [Phage-2814] | 0.063 | 0.538 |  |  | 
36 | B4 |  |  | 0.0991 | 0.606 | 
37 | VHKMCTPPWMCVTQ [Phage-2783] |  |  |  |  | phage binding ELISA signal (Anti-PSMA Fab, PSMA antigen present) (PSMA Fab [5]): 0.0908; Phage binding ELISA signal, Anti-PSMA Fab (PSMA Fab [6]): 0.621
38 | LNNWCTPAWMCVGY [Phage-2796] |  |  | 0.084 | 0.589 | 
